In patent publication US12098206B2, “PDGF receptor antibody and use thereof” (Seoul National University R&DB Foundation, priority 2018, dated 2024):

How the values were obtained:
neovascularization [1] = assay: Oxygen-induced retinal disease animal model; type: in vivo, C57BL/6 mice; details: complex with cot-duo; 1 uL into the vitreous cavity, 1 nM and 10 nM; FIG. 9
Procedure: C57BL/6 mice on 7th day after birth were reared in a high-concentration oxygen (75%) chamber for 5 days, and transferred to a normal oxygen breeding facility on 12th day to create an environment for retinopathy of premature baby.
On the 14th day after birth, 1 uL of each bispecific antibody scFv-Cκ-scFv, and the complex of the bispecific antibody scFv-Cκ-scFv fusion protein and cot-duo were injected into the vitreous cavity at a concentration of 1 nM and 10 nM, respectively. To label blood vessels, isolectin B4-594 (1:100; 121413, Invitrogen) was treated on the retinal flat mount.

mPDGFR-β and cotinine = target: T1, mPDGFR-β and cotinine (Mus musculus, UniProt P05622); assay: Enzyme immunoassay, simultaneous binding to cotinine and mPDGFR-β; details: cotinine-BSA coated wells, then mPDGFR-β-Fc chimera; FIG. 3d
T1 construct: mPDGFR-β
T1 sequence (P05622 32-530): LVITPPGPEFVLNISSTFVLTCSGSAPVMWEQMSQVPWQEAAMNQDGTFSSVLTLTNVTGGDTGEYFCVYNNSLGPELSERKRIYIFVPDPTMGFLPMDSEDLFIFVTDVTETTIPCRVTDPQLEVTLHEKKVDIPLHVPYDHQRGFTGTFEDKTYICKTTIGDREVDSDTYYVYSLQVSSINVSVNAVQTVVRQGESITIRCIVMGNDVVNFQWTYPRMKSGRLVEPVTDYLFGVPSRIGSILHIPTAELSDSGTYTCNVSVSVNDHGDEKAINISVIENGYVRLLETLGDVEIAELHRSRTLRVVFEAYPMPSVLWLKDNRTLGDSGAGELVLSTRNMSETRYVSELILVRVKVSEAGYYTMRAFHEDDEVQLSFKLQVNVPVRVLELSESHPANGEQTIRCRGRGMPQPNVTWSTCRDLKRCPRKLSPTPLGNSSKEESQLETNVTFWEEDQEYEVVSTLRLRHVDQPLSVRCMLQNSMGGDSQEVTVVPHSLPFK
Procedure: In order to confirm whether the bispecific antibody has simultaneous binding ability to both cotinine and mPDGFR-β, anti-mPDGFR-β x cotinine scFv-Cκ-scFv fusion protein was reacted in wells coated with cotinine-BSA. Washing was performed for each process, and mPDGFR-β-Fc chimeric protein and HRP-anti human Fc antibody were sequentially incubated.

neovascularization [2] = assay: Laser-induced choroidal neovascularization animal model; type: in vivo, mice; details: complex with cot-duo; 1 uL into the vitreous cavity, 10 nM; FIG. 10
Procedure: After anesthetizing the mice, the retina of the mouse was irradiated with an indirect ophthalmoscope system (ILOODA) laser in a 300 um spot size with 400 mW intensity, 50 ms duration, and 810 nm wavelength to induce destruction of Bruch's membrane.
After 4 days of laser irradiation, 1 uL of each bispecific antibody scFv-Cκ-scFv, and complex of the bispecific antibody scFv-Cκ-scFv fusion protein and the cot-duo was injected into the vitreous cavity at a concentration of 10 nM. After 7 days of laser irradiation, the eyes were removed to obtain retinal pigment epithelial-choroid-scleral tissue, and immunofluorescence staining was performed with isolectin B4 antibody conjugated to Alexa Fluor 594 to determine the extent of the choroidal neovascular membrane. The neovascularization inhibition ability of the scFv-Cκ-scFv fusion protein and the cot-duo complex was confirmed. To quantitatively analyze the extent of the choroidal neovascular membrane, the ImageJ program (NIH) was used.

MOLT-4 cells = assay: Cytotoxicity in MOLT-4 cells not expressing mPDGFR-β; type: cell-based; details: complex with cot-duo; FIG. 7
Procedure: FIG. 7 is a graph confirming the cytotoxic ability of the bispecific antibody related to the anti-mPDGFR-β antibody and cot-duo complexes in the cells not expressing PDGFR-β. In FIG. 7a, MOLT-4 cells were reacted with the bispecific antibody and cot-duo complex (DAR4). The cellular ATP was measured to evaluate the relative cell viability. In FIG. 7b, MOLT-4 cells were reacted with the bispecific antibody and cot-duo complex (DAR2). The bispecific antibody anti-HER2 x cotinine scFv-Cκ-scFv was used as a negative control. DMSO was used as a vehicle control for cot-duo.

NIH3T3 cells = assay: Internalization analysis by confocal microscopy in NIH3T3 cells; type: cell-based, mouse; details: 10 μg/mL, 37° C., 30 minutes, FIG. 4c
Procedure: The bispecific antibody of scFv-Cκ-scFv fusion protein was analyzed with a confocal microscope for visualizing internalization. NIH3T3 cells were treated with the bispecific antibody of scFv-Cκ-scFv (10 μg/mL) diluted in DMEM containing 10% FBS, and internalized at 37° C. for 30 minutes. After washing the cells 3 times with cold PBS, acidic buffer (0.2 M acetic acid, 0.5 M sodium chloride) was treated at room temperature for 5 minutes to remove the antibody bound to the cell surface. Cells were washed twice with cold PBS, fixed with 4% paraformaldehyde for 10 minutes, and then subjected to immunofluorescence staining as previously described [J. M. Lim et al., J. Cell. Biol. 210 (2015) 23].
Briefly, to block antibodies having non-specific reaction, cells were incubated in PBS containing 5% horse serum and 0.1% Triton X-100 for 30 minutes, and 2 μg/mL FITC-anti human Cκ antibody (TB28-2, BD Biosciences) was added at room temperature for 30 minutes. To image the initial endosomes, the cells were washed 3 times with PBS, incubated with PBS containing 5% horse serum and 0.1% Triton X-100 for 30 minutes, and then incubated with ati-RabS antibody diluted to 1:200 (C8B1, Cell Signaling Technology, Danvers, MA, USA). Alexa Fluor 546 goat anti-rabbit IgG (A-11035, Invitrogen) was sequentially treated. Cells were treated with 0.2 μg/mL DAPI to detect DNA. Confocal microscopy images were obtained using a Zeiss LSM 880 microscope, and images were analyzed with Zen software (Carl Zeiss, Thornwood, NY, USA).
To measure the cellular internalization of the bispecific antibody of scFv-Cκ-scFv, anti-mPDGFR-β x cotinine scFv-Cκ-scFv fusion protein was incubated in NIH3T3 cells, and then treated with FITC-anti-human Cκ antibody and endosome-specific antibody. It was imaged using a confocal microscope. […] When the images were merged, the present inventors confirmed that the fluorescence of the three antibody clones and the endosome-specific antibody were co-localized.

B1: PRb-CN01: anti-mPDGFR-β chicken scFv clone (VH SEQ ID NO 7, VL SEQ ID NO 8), tested as scFv-Cκ-anti-cotinine scFv bispecific antibody (antibody, V domains shown)
VH: AVTLDESGGGLQTPGGALSLVCKASGFTFSDRAMHWVRQAPGKGLEWVGLITNTGGSTNYGAAVKGRATISRDNGQSTVRLQLNNLRAEDTGTYYCTRGVGSWAHGGRIDAWGHGTEVIVSS
VL: LTQPSSVSANPGETVKITCSGGSGSYGWFQQKSPGSAPVTVIYSNNQRPSDIPSRFSGSKSGSTNTLTITGVQAEDEAIYYCGTRDSSYVGIFGAGTTLTVL
modifications: VH of PRb-CN01; VL of PRb-CN01
Question: How did the inhibition of neovascularization (neovascularization [1]) turn out when B1 was run?
Answer: Its inhibition of neovascularization is “inhibited neovascularization in a concentration-dependent manner”.

Question: And the “simultaneous binding to mPDGFR-β and cotinine” value (mPDGFR-β and cotinine)?
Answer: The value was “simultaneously bound to mPDGFR-β and cotinine”.

Question: And the inhibition of neovascularization (neovascularization [2])?
Answer: The inhibition of neovascularization was “inhibited neovascularization”.

Question: And the “toxicity in MOLT-4 cells compared to control antibody” value (MOLT-4 cells)?
Answer: Its value is “no difference in toxicity from the control antibody”.

Question: What about the cellular internalization (NIH3T3 cells) of the same molecule?
Answer: The cellular internalization was “Intracellular fluorescence was detected”.
